This data set is described as follows: yeast display, Sf9 membrane polyspecificity reagent, FACS + sequencing; frameworks hold sequencing errors. In a few lines:
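A nanobody's polyreactivity label depends on the gate it was sorted from. Yeast display cells were stained with 10% biotinylated, detergent-solubilized Sf9 membrane reagent for 1 hour at 4 °C, enriched on streptavidin microbeads and sorted by FACS. The low and high (top ~1%) gates were set on anti-HA fluorescence for expression and streptavidin fluorescence for reagent binding.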
Consider “QVQLVESGGGLVQAGGSLRLRCAASGRIFRSYAMGWYRQAPGKEWEMVAAITSGTRTNYADSVKGRCTISRDNAKNTVYLQMNSLKPEDTAVSYCAARGSGFPPYRTRNYWGQGTQVTVSS”, for which the “polyreactivity (PSR sort gate)” value is given as “high polyreactivity”.

For the sequence “QVQLVESGGGLVQEGGSLRLSCAASGSIFSGYAMGWYRQAPGKERELVAGITWSGGSTYYADSVKGRFTISRDNAKNTVYLQMNSLKPEDTSVYYCAAKYYWYYSYSGIPLFDYWGQGTQVTVSS”, the “polyreactivity (PSR sort gate)” value is “low polyreactivity”.

Turning to “QVQLVESGGGLVQAGGSLRLSCAASGRTFRSNAMGWFRQAPGKERELVAAISRTGRTNYADSVKGRFTISRDNAKNTVYLQMNSLKPEDTAVYYCAARGYSVPWQERYDYWGQGTQVTVSS”, the “polyreactivity (PSR sort gate)” value is recorded as “high polyreactivity”.

Turning to “QVQLVESGGGLVQAGGSLRLSCAASGRIFVRYAMGWYRQAPGKERELVAAISYRGGSTYYADSVKGRFTISRDNAKNTVYLQMNSLKPEDTAVYYCAARNSYGNWRYYYWGQGTQVTVSS”, the “polyreactivity (PSR sort gate)” value is “high polyreactivity”.

As for “QVQLVESGGGLVQAGGSLRLSCAASGLNCKTYTMGWDRQAPGKEREFVAAITTSGGSTYYADSVKGRFTISRDNAKNTVYLQMNSLKPEDTAVYYCDAVWCKSFQGSSYGMNYWGQGTLVTVSS”, the “polyreactivity (PSR sort gate)” value is on record as “high polyreactivity”.

For “QVQLVESGGGLVQAGGSLRLSCAASGSTFNCYHMGWYRQAPGKEMELVAAITGSGGYTYYADSVKGRFTISRDNAKNTVYLQMKSLNPEETAVYYCAAKKVAGRRFYYWGQGTQVTVSS”, the “polyreactivity (PSR sort gate)” value is “low polyreactivity”.

As to “QVQLVESGGGLVQAGGSLRLSCAASGLTFVLYAMGWYRQAPGQERELVAAISKRGGSTNYADSVKGRFTISRDNAKNTVYLQMNSLKPADTAVYYCAPRYPQGGTGKATYVRSRSGYWGQGTQVTVSS”, the “polyreactivity (PSR sort gate)” value is “high polyreactivity”.

For the sequence “QVQLVESGGGLVQAGGSLRLSCAASGGTFEVNAMGWYRQAPGKERELVAAIDTSDGSTYYADSVKGRFTISRDNAKNTVYLQMNSLKPEDTAVYYCAAERLFRFWYSAYERYDYWGQGTQVTVSS”, the “polyreactivity (PSR sort gate)” value was “low polyreactivity”.

Turning to “QVQLVESGGGLVQAGGSLRLSCAASGITFSPYTMGCYRQAPGKERELVAAITDGAITYYADSVKGRFTISRDNAKNTVYLQMNSLKPEDTAVYYCAAAAWGTDPYSTDYATYDYWGQGTQVTVSS”, the “polyreactivity (PSR sort gate)” value is listed as “low polyreactivity”.

With “QVQLVETGGGLVQAGGSLRLSCAASGRTIVYYDMGWYRQAPGKEREFVSTITSSGGSTYYADSVKGRFTISRDNAKNTVYVQMNSLKPEDTAVYYCAAYPYIRYSKVSKYYYWGQGTQVTVSS”, the “polyreactivity (PSR sort gate)” value is “high polyreactivity”.

Turning to “QVQLVESGGGLVQAGGRLRLSCAASGRIFDLNAMGWYRQAPGKERELVADINSGGSTYYADSVKGRFTISRDNAKNTVYLQMNSLKPEDTAVYYCDVRRNQHVVQMYYWGQGTQVTVSS”, the “polyreactivity (PSR sort gate)” value is “low polyreactivity”.

For the sequence “QVQLVESGGGLVQAGGSLRLSCAASGSIFVVNAMGWYRPAPGKERELVAAISDSGDRTYYADSVKGRFTISRDNAKNTVYLLMNSLKPEDTAVYYCNTRYSPGYQGTEVDYWGQGTQVTVSS”, the “polyreactivity (PSR sort gate)” value is on record as “low polyreactivity”.

Turning to “QVQLVESGGGLVQAGGSLRLSCAASGRNILPYAMGWYRPSPGKERELVAAISVSGVITYYAESVKGRFTISRDNAKNTVYLQMNSLKPEDTEVYYCASDYTPRRWGRLYDYWGQGTQVTVSS”, the “polyreactivity (PSR sort gate)” value is given as “low polyreactivity”.

For “QVQHVESGGGLVQAGGSLRLSCAASGSTFQMYAMGWYRQAPGKEMELVASISWSGGSTYYAVSVMGRFTISRDNAKNTFYLQMNSLKPEDTAVYYCKADFWWRYRPGAVFRSYGYWGQGTQVTVSS”, the “polyreactivity (PSR sort gate)” value was “low polyreactivity”.

On to “QVQLVESGGGLVQAGGSLRLSCAASGSTFWPYTMGWYRQAPGKERELVAAITLRGGTTYYADSVKGRFTISRDNEKNTVYLQMNSLKPEDTAVYYCAADVAYVEYDYWGQGTQVTVSS”, for which the “polyreactivity (PSR sort gate)” value was “low polyreactivity”.

For “QVQLVESGRGLVQAGGSLLLICAASGSTFYTNAMGWYRQAPGKERELVASITGGGSTYYADSVKGRFTISRDNAKNTVYLQMNSLKPEDTAVYYWAAVNFGGGWEFDSWGQGTKVTVSS”, the “polyreactivity (PSR sort gate)” value is listed as “low polyreactivity”.

Regarding “QVQLVESGGGLVQAGGSLRLSCASSGSTFKVYDMGWSRQAPGKERELVATITWGGGGTYYADSVTGRFTISRDNAKNTVYLLMNSLKPQDTAVYFCAAEVTLYSCYRYWYRYEYWGQGTQVTVSS”, the “polyreactivity (PSR sort gate)” value is on record as “high polyreactivity”.

Regarding “QVQLVESGGGLVQAGGSLRLSCAASGRTFYHYAMGWYRQAPGKERELVAGITGRGRSTYYADSVKGRFTISRDNAKNTVYLQMNSLKPEDTAVYYCAAARLYSGAASDYGYWGQGTQVTVSS”, the “polyreactivity (PSR sort gate)” value is listed as “high polyreactivity”.

In the case of “QVQLVESGGGLVQAGGSLRLSCAASGSTFSHYAMGLYRQAPGKERALVAAISSGANTYYADSVKGRFTISRDNAKNTVYLLMNSLKPEDTAVYYCAADYYLAYIFPYDYWGQGSQVTVSS”, the “polyreactivity (PSR sort gate)” value was “low polyreactivity”.

For “QVQLVESGGGLVQAGGSLRLSCAASGRIFSNNAMGWYRQAPGKERELVAAITNSGGSTYYADSVKGRFTISRDNAKNTVYLQMNSLKPEDTAVYYCNARSKVAYYRHYYWGQGTQVTVSS”, the “polyreactivity (PSR sort gate)” value is given as “low polyreactivity”.

As for “QVQLVESGGGLVQAGGSLRLSCAASGNIFVTYDMGWYRQAPGKEREMVASISWNGGSTHYADSVKGLFTISGDNAKYSVYLQMNSRKPEDTAVYYCAAEYWTSYADYRYDYWGQGTQVTVSS”, the “polyreactivity (PSR sort gate)” value is “low polyreactivity”.

For “QVQLVESGGGLVQAGGSLRLSCAASGITFAEYAMGWYRQAPGKERELVAAINGGGGSTYYADSVKGRFTISRDNAKNTVYLQMNSLKPEDTAVYYCAARYRGWSGGYDYWGQGTQVTVSS”, the “polyreactivity (PSR sort gate)” value is reported as “high polyreactivity”.

For “QVQLVESGGGLVQAGGSLRLSCAASGSTFRRYGMGWYRQAPGKEREWVAAISKGGTRTYYADSVKGRFTISRDNAKNTVYLQMNSLKPEDTAVYYCAAAGAPSSTPQKEYYWGQGTQVTVSS”, the “polyreactivity (PSR sort gate)” value is on record as “high polyreactivity”.

For “QVQLVESGGGLVQAGGSLRLSCAASGRIFSYYTMGWYRQAPGKERELVAAISYRGGSTYADSVKGRFTISRDNAKNTVYLQMNSLKPEDTAVYYCAADDLSYVGYYYGYVDDDYWGQGTQVTVSS”, the “polyreactivity (PSR sort gate)” value is “high polyreactivity”.

In the case of “QVQLVESGGGLGQAGGSLRLSCAASGRTFDNYAMGWYRQAPGKERELVARITDTGGSTYYADSVKGRFTISRVNAKNTVYLQMNSLKPEDTAVYYCAAVSYPFAWYWLYYYWGQGTQVTVSS”, the “polyreactivity (PSR sort gate)” value was “low polyreactivity”.

Turning to “QVQLVESGGGLVQAGGSLRLICAASGRTFDGYVMGLYRQAPGKERELVASIRGTGSTYYADSVKGRFTISRENAKNTVYLQMNSLKPEDTAVYYCAARPGYAYDWGQGTQVTVSS”, the “polyreactivity (PSR sort gate)” value is “high polyreactivity”.

As for “QVQLVESGGGLVQAVGSLRLSCAASGSTFFWYAMGWYRQAPGKERELVAAISKTGGSTYYADSVKGRFTISRDNAKNTVYLQMNSLKPEDTAVYYCAKPLSSFSRTSSVWPWYDYWGQGTQVTVSS”, the “polyreactivity (PSR sort gate)” value is listed as “low polyreactivity”.

With “QVQLVESGGGLVQAGGSLRLSCAASGRIFFHYAMGWYRQAPGKERELVAVISSSGGITYYADSVKGRFTFSRDNAKNTVYLQMNSLKPEDTAVYYCNTVPRPFDRYGYWGQGTQVTVSS”, the “polyreactivity (PSR sort gate)” value is listed as “low polyreactivity”.

For the sequence “QVQLEESGGGLVQAGGSLRLTCAASGRTFYNNAMGWYRQAPGKERQLVATISKSGGSTNYADSVKGRFTISRDNAKNTVYLQMNSLKPEDNAVYYCAADTSGGSWGRGRWKYGYWGQGTQVTVSS”, the “polyreactivity (PSR sort gate)” value was “high polyreactivity”.

Turning to “QVQLVESGGGLVQAGGSLRLSCAASGLIFSQNAMGWYRQAPGKERELVARITWSGTSTYYADSVKGRFTISRDNAKNTVYLQMNSLKPEDTAVYYCAADRPRGRETVDYWGQGTQVTVSS”, the “polyreactivity (PSR sort gate)” value is given as “high polyreactivity”.

For the origin of these results see the nanobody polyreactivity screen of Harvey et al. (2022).
